The subject of data set [1] is FGF1, FGF2, FGF7, FGF19, FGF21. Put plainly: Plate-based binding assay, other FGF isoforms coated, FLAG-sKL detected with anti-FLAG HRP. The arrangement: species or system human. The following applies: 10 ng FGF coated, 40 ng FLAG-sKL. The protocol: Proteins were coated on 96-well plates (MaxiSorp; 439454, Thermo Fisher Scientific), and proteins were added to wells in 100 μl of enzyme-linked immunosorbent assay (ELISA) coating buffer (E107, Bethyl Laboratories) with a lid placed overtop and incubated at 4° C. overnight. Plates were washed 5× with 350 μl of assay buffer (50 mM Tris [pH 7.4], 200 mM NaCl, 0.01% Tween 20) on a 50 TS microplate washer (BioTek). Plates were blocked for 1 hour in 200 μl of assay buffer with 0.5% BSA. Plates were washed as before, and proteins were incubated on plates in 100 μl of assay buffer with 0.5% BSA. Proteins or heparin was incubated in orders described in the respective figure legends. Assays using FLAG-tag-based detection were incubated with anti-FLAG coupled to HRP at 1:20,000, and assays using Fc detection were incubated with anti-human Fc coupled to HRP at 1:10,000. […] Reactions were stopped with ELISA stop solution (E115, Bethyl Laboratories) and analyzed using the Synergy HI plate reader (BioTek) at 450 nm wavelength. […] As a control to remove background absorbance values, wells were coated with an equal amount of BSA to match the amount of protein coated in experimental wells and treated the same as experimental wells. […]

For a further data set, the system named is mouse model of CKD. Conditions: administration of sKL; cited from earlier work.
For data set [2], the system named is FGF19 binding to FGFR isoforms 1c, 2c, 3c, 4. Put plainly: Pull-down and plate binding of FGF19 to FGFR isoforms with sKL or heparin. The arrangement: species or system human. As for the experimental part: To study the interaction between Fc-tagged FGFR isoforms (Fc-FGFR), FGF isoforms, and sKL, immunoprecipitation studies were conducted. Protein A beads (6501, BioVision) and protein G beads (6511, BioVision) were used at 25 μl of a 50% stock slurry per sample in a total bead volume of 50 μl. Beads were washed 5× in activity buffer (50 mM Tris [pH 7.4], 200 mM NaCl, 0.01% Tween 20). Bead spin-down assays were all performed for 2 minutes at 5000 g. Beads were resuspended in 1 ml of activity buffer in a 1.5-ml snap cap tube. One microgram of Fc-FGFR1 to 4 was incubated with the beads for 1 hour on a bead rotator. Control samples were incubated with 2 μg of anti-FGF antibody instead of Fc-FGFR. […] Samples were analyzed using SDS-PAGE and Western blotting.
Sequence of FGF19 binding to FGFR isoforms 1c, 2c, 3c, 4 (O95750 25-216): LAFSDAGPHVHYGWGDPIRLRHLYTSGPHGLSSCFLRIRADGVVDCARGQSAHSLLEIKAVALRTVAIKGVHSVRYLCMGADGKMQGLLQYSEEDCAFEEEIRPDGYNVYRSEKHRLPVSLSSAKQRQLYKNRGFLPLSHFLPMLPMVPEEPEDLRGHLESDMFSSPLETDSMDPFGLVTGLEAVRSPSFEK
Proteins were coated on 96-well plates (MaxiSorp; 439454, Thermo Fisher Scientific), and proteins were added to wells in 100 μl of enzyme-linked immunosorbent assay (ELISA) coating buffer (E107, Bethyl Laboratories) with a lid placed overtop and incubated at 4° C. overnight. […] Reactions were stopped with ELISA stop solution (E115, Bethyl Laboratories) and analyzed using the Synergy HI plate reader (BioTek) at 450 nm wavelength. […] As a control to remove background absorbance values, wells were coated with an equal amount of BSA to match the amount of protein coated in experimental wells and treated the same as experimental wells. […]

A short description of data set [3]: Half-life of recombinant sKL in the circulation of rats. The following applies: tail vein injection 100 μg/kg. In kind it is in vivo, rat. As for the experimental part: To determine the half-life of recombinant sKL protein in the circulation, rats were injected with the Strep-tagged mouse sKL that was purified as described above. Each group consisted of 3 male Sprague Dawley rats (9 weeks of age and weighing approximately 300 g). For injections and bleeding, rats were anesthetized with 2.5% isoflurane. For injections, a shielded i.v. catheter (BD Insyte Autoguard 0.7×19 mm, catalog no. 381412) was inserted into the lateral tail vein and flushed with 100 μl of isotonic saline (0.9%). One milliliter of purified sKL protein dissolved in isotonic saline (100 μg/kg) or isotonic saline was then injected, and the catheter was flushed again with 100 μl of isotonic saline. For bleeding, a shielded i.v. catheter was inserted into the lateral tail vein. Blood samples (300 μl) were taken after 1, 3, 5, 10, 15, 30, and 60 minutes as well as 3, 6, 12, and 48 hours. For collections from 15 minutes to 48 hours postinjection, a separate i.v. catheter was inserted each time to draw blood. For collections from 1 to 15 minutes post-sKL injection, the same i.v. catheter was used, and to exclude contamination with the previous draw, the catheter was flushed with isotonic saline between each sample. […] Serum was then aliquoted and stored at approximately […] before analysis. For the sKL activity assay, wells were coated with 500 ng of mouse FGF23 in 100 μl of coating buffer (E107, Bethyl Laboratories) at 4° C. overnight. Plates were washed 5× at 350 μl of assay buffer (50 mM Tris, [pH 7.4] 200 mM NaCl, 0.01% Tween 20) on a 50 TS microplate washer (BioTek). Plates were blocked for 1 hour in 200 μl of assay buffer with 0.5% BSA. Plates were washed and incubated with 30 μl per well and 70 μl of assay buffer with 0.5% BSA. Standards were run at noted concentrations by using purified Strep-tagged mouse sKL protein with 30 μl of control serum and 70 μl of assay buffer with 0.5% BSA added to ensure consistency. All samples and standards were run in triplicates. After 1 hour, plates were washed, and 150 ng of Fc-FGFR1c were incubated on plates in 100 μl of assay buffer with 0.5% BSA. After 1 hour, plates were washed and incubated with anti-human Fc-HRP at 1:10,000. Plates were washed as above and 100 μl of TMB substrate (E102, Bethyl Laboratories) was added for 15 to 20 minutes until positive wells developed a dark blue color. Reactions were stopped with ELISA stop solution (E115, Bethyl Laboratories) and analyzed using the Synergy HI plate reader (BioTek) at 450 nm wavelength. Amounts of sKL were calculated by taking the slope of the standard curve and calculating where the sample points fit in.

“Also recorded” adds a separate entry of the source.

B1: sKL: recombinant soluble α-klotho ectodomain, mouse aa 35-982 and human aa 34-981, FLAG- or Strep/His-tagged, purified from HEK293 cells (protein)
chain: EPGDGAQTWARFSRPPAPEAAGLFQGTFPDGFLWAVGSAAYQTEGGWQQHGKGASIWDTFTHHPLAPPGDSRNASLPLGAPSPLQPATGDVASDSYNNVFRDTEALRELGVTHYRFSISWARVLPNGSAGVPNREGLRYYRRLLERLRELGVQPVVTLYHWDLPQRLQDAYGGWANRALADHFRDYAELCFRHFGGQVKYWITIDNPYVVAWHGYATGRLAPGIRGSPRLGYLVAHNLLLAHAKVWHLYNTSFRPTQGGQVSIALSSHWINPRRMTDHSIKECQKSLDFVLGWFAKPVFIDGDYPESMKNNLSSILPDFTESEKKFIKGTADFFALCFGPTLSFQLLDPHMKFRQLESPNLRQLLSWIDLEFNHPQIFIVENGWFVSGTTKRDDAKYMYYLKKFIMETLKAIKLDGVDVIGYTAWSLMDGFEWHRGYSIRRGLFYVDFLSQDKMLLPKSSALFYQKLIEKNGFPPLPENQPLEGTFPCDFAWGVVDNYIQVDTTLSQFTDLNVYLWDVHHSKRLIKVDGVVTKKRKSYCVDFAAIQPQIALLQEMHVTHFRFSLDWALILPLGNQSQVNHTILQYYRCMASELVRVNITPVVALWQPMAPNQGLPRLLARQGAWENPYTALAFAEYARLCFQELGHHVKLWITMNEPYTRNMTYSAGHNLLKAHALAWHVYNEKFRHAQNGKISIALQADWIEPACPFSQKDKEVAERVLEFDIGWLAEPIFGSGDYPWVMRDWLNQRNNFLLPYFTEDEKKLIQGTFDFLALSHYTTILVDSEKEDPIKYNDYLEVQEMTDITWLNSPSQVAVVPWGLRKVLNWLKFKYGDLPMYIISNGIDDGLHAEDDQLRVYYMQNYINEALKAHILDGINLCGYFAYSFNDRTAPRFGLYRYAADQFEPKASMKHYRKIIDSNGFPGPETLERFCPEEFTVCTECSFFHTRKS
modifications: left off: small tags and cut ends
notes: recombinant soluble α-klotho ectodomain, mouse aa 35-982 and human aa 34-981, FLAG- or Strep/His-tagged, purified from HEK293 cells
With B1, the “binding of FLAG-sKL to other coated FGF isoforms” value in data set [1] is reported as “not observed”. The “development of ventricular arrhythmias” value in the data set on mouse model of CKD is “protects”. Also, the “binding of FGF19 to any of the FGFR isoforms” value in data set [2] is on record as “did not mediate binding; also recorded: did not lead to complex formation; also recorded: did not bind any of the FGFR isoforms”. Also, the “time postinjection from which sKL could no longer be detected” value in data set [3] is no less than 3 h. The “time post-injection after which sKL levels were reduced by about half” value in data set [3] (earlier time points) was “approximately 10 minutes”. In addition, in data set [3] (serum, listed as recombinant sKL protein), the “half-life in the circulation” value was “approximately 10 minutes”. In data set [3] (versus vehicle), the “serum sKL level at the 15-minute time point” value is “high levels of sKL were detected”.
